{
  "source": "patent US20150164800A1",
  "about": "“REGULATING THE INTERACTION BETWEEN TAM LIGANDS AND LIPID MEMBRANES WITH EXPOSED PHOSPHATIDYL SERINE” (priority 2012, published 2015)",
  "key": {"Mer [1]": {"target": "T1, Mer (Mus musculus, UniProt Q60805)", "T1 sequence (Q60805 19-994)": "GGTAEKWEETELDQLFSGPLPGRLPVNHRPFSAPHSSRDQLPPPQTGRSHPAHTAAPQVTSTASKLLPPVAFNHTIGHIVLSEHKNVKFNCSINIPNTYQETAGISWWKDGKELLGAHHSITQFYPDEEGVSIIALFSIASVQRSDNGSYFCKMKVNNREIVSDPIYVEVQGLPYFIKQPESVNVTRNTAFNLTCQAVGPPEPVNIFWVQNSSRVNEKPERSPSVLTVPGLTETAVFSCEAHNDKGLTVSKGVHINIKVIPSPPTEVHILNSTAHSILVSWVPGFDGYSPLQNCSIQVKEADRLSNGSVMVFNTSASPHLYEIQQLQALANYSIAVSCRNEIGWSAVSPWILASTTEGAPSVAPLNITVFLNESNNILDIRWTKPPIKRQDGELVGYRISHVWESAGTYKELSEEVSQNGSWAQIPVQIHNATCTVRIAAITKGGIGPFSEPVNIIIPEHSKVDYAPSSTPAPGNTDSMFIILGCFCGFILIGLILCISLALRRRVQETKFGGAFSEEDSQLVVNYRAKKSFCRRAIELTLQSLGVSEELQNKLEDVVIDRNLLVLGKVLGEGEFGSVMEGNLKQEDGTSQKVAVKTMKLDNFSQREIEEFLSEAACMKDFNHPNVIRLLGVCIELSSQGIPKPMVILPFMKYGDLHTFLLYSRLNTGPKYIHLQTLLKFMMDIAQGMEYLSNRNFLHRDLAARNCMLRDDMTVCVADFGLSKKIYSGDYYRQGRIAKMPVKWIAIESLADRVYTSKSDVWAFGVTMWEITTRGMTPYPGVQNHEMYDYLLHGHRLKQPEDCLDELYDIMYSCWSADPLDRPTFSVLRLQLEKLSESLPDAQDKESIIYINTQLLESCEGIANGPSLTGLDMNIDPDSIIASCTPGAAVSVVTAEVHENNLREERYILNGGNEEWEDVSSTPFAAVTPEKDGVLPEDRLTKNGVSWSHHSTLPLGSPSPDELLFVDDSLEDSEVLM", "format": "cell-based", "conditions": "WT-BMDCs"}, "Axl [2]": {"target": "Axl (Mus musculus, UniProt Q00993)", "sequence (Q00993 19-888)": "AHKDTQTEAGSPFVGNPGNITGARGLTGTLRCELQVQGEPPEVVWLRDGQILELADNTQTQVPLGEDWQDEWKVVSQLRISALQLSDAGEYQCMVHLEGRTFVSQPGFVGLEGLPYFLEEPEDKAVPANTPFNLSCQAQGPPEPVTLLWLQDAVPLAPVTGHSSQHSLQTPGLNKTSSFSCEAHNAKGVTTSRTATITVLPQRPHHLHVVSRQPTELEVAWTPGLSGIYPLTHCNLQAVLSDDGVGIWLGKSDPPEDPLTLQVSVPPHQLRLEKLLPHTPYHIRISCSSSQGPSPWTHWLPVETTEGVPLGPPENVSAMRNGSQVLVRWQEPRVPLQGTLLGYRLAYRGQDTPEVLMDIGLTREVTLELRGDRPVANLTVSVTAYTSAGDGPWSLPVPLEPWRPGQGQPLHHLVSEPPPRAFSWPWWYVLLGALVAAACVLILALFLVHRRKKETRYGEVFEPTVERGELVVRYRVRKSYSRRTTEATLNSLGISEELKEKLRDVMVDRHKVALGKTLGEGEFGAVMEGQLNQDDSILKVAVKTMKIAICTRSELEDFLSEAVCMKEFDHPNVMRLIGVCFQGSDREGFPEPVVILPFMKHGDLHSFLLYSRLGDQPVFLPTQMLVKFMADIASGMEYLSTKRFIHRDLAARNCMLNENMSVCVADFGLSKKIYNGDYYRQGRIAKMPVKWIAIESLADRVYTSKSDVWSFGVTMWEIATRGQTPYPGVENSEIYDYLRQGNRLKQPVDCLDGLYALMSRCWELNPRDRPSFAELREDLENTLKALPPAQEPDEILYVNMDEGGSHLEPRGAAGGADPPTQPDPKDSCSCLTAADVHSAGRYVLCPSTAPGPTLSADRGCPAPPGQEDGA", "format": "cell-based"}, "Mer [3]": {"target": "T1, Mer", "assay": "Gas6-stimulated TAM receptor activation (phosphotyrosine IP-immunoblot) in BMDMs, Mer", "format": "cell-based", "conditions": "WT-BMDMs pre-treated 30 min, stimulated with 10 nM Gas6 for 10 min; FIG. 4B", "method": "Immunoprecipitation and immunoblot analysis was conducted as described above."}, "EbGP-pseudotyped virus": {"system": "EbGP-pseudotyped virus", "format": "cell-based, mouse", "conditions": "300 nM, 24 h post-infection, FIG. 4C"}, "Axl [4]": {"system": "Axl", "sequence (Q00993 19-888)": "as above", "format": "cell-based, mouse", "conditions": "100 nM, BMDCs; FIG. 5B"}, "DENV": {"system": "DENV", "conditions": "Axl-expressing HEK293 cells; concentration approximately 7-fold higher than 100 nM; Meertens et al. (2012); cited from earlier work"}},
  "data": [
    {"molecule": "Protein S: purified human Protein S, TAM ligand (Mer and Tyro3 ligand)", "values": [
      {"measurement": "virus-mediated potentiation of ligand-triggered signaling with MAV-1 (Mer)", "setting": "Mer [1]; 1 nM hProS plus non-enveloped MAV-1", "value": "not seen"},
      {"measurement": "Mer activation by ligand alone", "setting": "Mer [1]; 0.5-2 nM hProS, 5 min, FIG. 2A", "value": "rapid dose-dependent activation"},
      {"measurement": "effect of VSVg pseudotyped virus on stimulatory effect of ligand (Mer activation)", "setting": "Mer [1]; ligand plus enveloped VSVg pseudotyped virus, dose-response shifted to lower concentrations", "value": "dramatically potentiated"}
    ]},
    {"molecule": "Gas6: recombinant mouse Gas6, pan-TAM ligand", "values": [
      {"measurement": "potentiation of Gas6-induced Axl activation by bald HIV-1 virions versus VSVg-pseudotyped virions", "setting": "Axl [2]; BMDCs, bald virions lacking viral glycoproteins, FIG. 6B", "value": "equally competent"},
      {"measurement": "virus-mediated potentiation of ligand-triggered signaling with MAV-1 (Axl)", "setting": "Axl [2]; WT-BMDCs, 1 nM mGas6 plus non-enveloped MAV-1", "value": "not seen"},
      {"measurement": "Axl activation by ligand alone", "setting": "Axl [2]; WT-BMDCs, 0.25-1 nM mGas6, 5 min, FIG. 2B", "value": "rapid dose-dependent activation"},
      {"measurement": "effect of VSVg pseudotyped virus on stimulatory effect of ligand (Axl activation)", "setting": "Axl [2]; WT-BMDCs, ligand plus enveloped VSVg pseudotyped virus, dose-response shifted to lower concentrations", "value": "dramatically potentiated"}
    ]},
    {"molecule": "CCOc1ccn(-c2ccc(F)cc2)c(=O)c1C(=O)Nc1ccc(Oc2ccnc(N)c2Cl)c(F)c1", "note": "[BMS-777607]", "values": [
      {"measurement": "concentrations effectively inhibiting ligand-dependent receptor activation (Mer)", "setting": "Mer [3]", "value": "30 to 300", "unit": "nM"},
      {"measurement": "effect on infection deficiency of TAM TKO BMDCs (HIV-1 DNA level)", "setting": "EbGP-pseudotyped virus; TAM TKO-BMDCs", "value": "not further reduced"},
      {"measurement": "susceptibility to virus infection (HIV-1 DNA level) versus untreated WT BMDCs", "setting": "EbGP-pseudotyped virus; WT-BMDCs", "value": "much less susceptible"}
    ]},
    {"molecule": "Annexin V: a known PtdSer-binding protein (protein, UniProt P08758 2-320, looked up) Annexin A5: AQVLRGTVTDFPGFDERADAETLRKAMKGLGTDEESILTLLTSRSNAQRQEISAAFKTLFGRDLLDDLKSELTGKFEKLIVALMKPSRLYDAYELKHALKGAGTNEKVLTEIIASRTPEELRAIKQVYEEEYGSSLEDDVVGDTSGYYQRMLVVLLQANRDPDAGIDEAQVEQDAQALFQAGELKWGTDEEKFITIFGTRSVSHLRKVFDKYMTISGFQIEETIDRETSGNLEQLLLAVVKSIRSIPAYLAETLYYAMKGAGTDDHTLIRVMVSRSEIDLFNIRKEFRKNFATSLYSMIKGDTSGDYKKALLLLCGEDD", "values": [
      {"measurement": "effect on VSVg-HIV potentiation of the Gas6 dose-response curve for Axl activation", "setting": "Axl [4]", "value": "significantly attenuated"},
      {"measurement": "reduction in DENV infection", "setting": "DENV", "value": "~60", "unit": "%"}
    ]}
  ]
}
